{
  "source": "patent US20230332166A1",
  "about": "“FORMATE-INDUCIBLE PROMOTERS AND METHODS OF USE THEREOF” (Imperial College Innovations Ltd, priority 2020, published 2023)",
  "data": [
    {"test_system": "Y. lipolytica JMY2900", "test": "qPCR of putative FDH gene transcription upon induction with sodium formate", "assay_type": "cell-based, Yarrowia lipolytica", "conditions": "YNB with 0.5% sodium formate, 6 h, 28° C., vs absence of formate; qPCR normalised to actin", "description": "FIG. 3: Transcription levels of the FDH genes of Yarrowia lipolytica W29 measured by qPCR, normalised to actin (ACT1) expression. Yarrowia lipolytica was grown in YNB supplemented with 1% glucose and 0.5% yeast extract at 15 h at 28° C., before being washed and transferred into YNB with 0.5% of sodium formate for induction and grown for 6 h.\nThe inducibility of the putative FDH genes with formate was then tested by qPCR. YALI0E14256g1_1 and the nine putative FDH with the highest % identity to YALI0E14256g1_1 were selected for testing. Y. lipolytica JMY2900 was cultured in YNB media supplemented with 1% glucose and 0.5% yeast extract for 15 h at 28° C. Cells were washed with distilled water and cultured in fresh liquid YNB media supplemented with 0.5% sodium formate at 28° C. with agitation at 160 rpm, before being harvested at 6 h post-inoculated. Cells were frozen in liquid nitrogen and stored at −80° C. RNA was subsequently extracted using the RNeasy Mini Kit (Qiagen), and 2 μg was treated with DNAse (Ambion; Life Science Technologies, Saint-Aubain, France). cDNA was synthesised using the Maxima First Strand cDNA synthesis kit (Thermo Fischer Scientific, Villebon sur Yvette, France). qPCR was then performed using the SYBRgreen mastermix (Thermo Fischer Scientific) with gene-specific primers designed using Primer3 software. Relative expression levels were calculated using ΔCT and ΔΔCT methods. Expression levels were normalised to actin.", "units": {"Fold increase on induction (fold change expression of putative FDH genes upon induction with sodium formate)": "fold"}, "values": [
      {"molecule": "Yali0B22506: putative Y. lipolytica FDH gene; promoter region SEQ ID NO: 4 (1 Kb) and 20 (1.5 Kb) (nucleic acid, listed as Yarrowia lipolytica, YALI0B22506g) DNA: ATGAAGATTCTCCTTATCCTTTACGACGCCGGCTCCCACGCTGCTGACGAACCCAAGCTGCTAGGTTGCACCGAGAACGAGCTCGGCATCCGATCCTGGCTCGAGTCCCAGGGCCATACCCTGGTCACCACCTCTTCCAAGGAGGGTGCTGACTCTGTTCTCGACAAGGAGATTGTTGATGCCGATGTTGTCATCACCACTCCCTTCCACCCCGGCTACATCACCCGAGAGCGAATTGCCAAGGCCAAGAACCTCAAGATCTGTGTCACTGCCGGTGTTGGCTCTGACCACGTTGATCTTGCTGCCGCCAACGAGAGAAACATTGCCGTGCTCGAGGTCACTGGTTCCAACGTGACTTCTGTTGCTGAGCACGTTGTCATGACCATGCTTGTTCTTGTCCGAAACTTCGTGCCTGCCAACGAGCAGGTTCGAGGCGGCGGCTGGGACGTTGCCGGTGTTGCCAAGGATTCCTACGATATTGAGGGTAAGGTCATTGGTACCGTCGGAGTCGGCCGAATCGGCAAGCGAGTGCTCCAGCGACTCAAGCCCTTCGACCCCAAGGAGCTGCTCTACTACGACTATCAGCCTCTGTCTGCTGCCGACGAGAAGGAGATTGGCGCCCGACGAGTTGAGAAGCTCGAGGACATGCTTGCCCAGTGTGATGTTGTCACCATCAACTGCCCCCTGCACGAATCCACCAAGGGTCTCTTTAACAAGGAGCTGCTGTCCCACATGAAGAAGGGCGCCTGGCTCGTCAACACCGCTCGAGGAGCCATCTGTGTAAAGGAGGACGTTGCCGCCGCTCTCAAGTCTGGTCAGCTCCGAGGCTACGGCGGAGATGTCTGGTTCCCCCAGCCTGCCCCTGCTGACCACCCCTGGAGAAAGATGGTCAACAAGTACGGTGCCGGTAACGCCATGACCCCCCACATGTCTGGAACCTCTCTGGACGCCCAGGCCCGATACGCTGCTGGTGTCAAGCAGATTCTCGACGAGTTCTTCTCCGGCCGAGAACAGTACCGACCCCAGGACATTATCTGCTACGGTGGTAACTACGGCACCAAGGCCTACGGAGACGACAAGAAGGTCGTCGACAAGAAGTAATCCGTCCAACGTTCTTCTCAGCGCACAGGTACCTATACTACTGGTAGTATCAGGTTAAACCTCTTTTAGTTTAATGATAAGATAAGATAACATACCGT", "Fold increase on induction (fold change expression of putative FDH genes upon induction with sodium formate)": 2.9},
      {"molecule": "Yali0E15840: putative Y. lipolytica FDH gene; promoter region SEQ ID NO: 10 (1 Kb) and 26 (1.5 Kb) (nucleic acid, listed as Yarrowia lipolytica, YALI0E15840g) DNA: ATGAAGGTCCTTCTTGTTCTTTACGATGCTGGCTCTCACGCTGCTGACGAGCCCAAGCTCCTTGGATGCACCGAAAACGAGCTCGGTATCCGAGACTGGCTCGAGTCCCAGGGCCACACGCTTGTCACCACCTCTTCCAAGGATGGCGCCGACTCTGTGCTCGACAAGGAAATTGTTGACGCCGACGTTGTCATCACCACCCCCTTCCACCCCGGCTACATCAACAAGGAGCGAATCGACAAGGCCAAGAAGCTCAAGATCTGCATCACCGCCGGAGTCGGCTCGGACCACGTTGATCTCGATGCTGCCAACGCTCGAGATATCGCTGTTCTGGAGGTCACTGGTTCTAATGTCCAATCCGTCGCTGAGCATGTTGTCATGACTATGCTCGTTCTGGTCCGAAACTTTGTCCCCGCCCACGAGCAGATCATTTCCGGCGGGTGGGACGTTGCGGCGGTCGCCAAGGACTCCTACGATCTAGAGGGTAAGGTCATCGGTACCGTGGGAGGCGGCCGAATCGGTCAGCGTGTCCTCAAGCGATGCAAGCCTTTCGACCCCATGGAAATGCTCTACTACGATTACCAGCCCATGCCTGCCGACGTCGAAGAGGAGATTGGCTGCCGACGAGTCGAGTCGCTCGAGCAAATGCTTTCTCTGTGTGATGTTGTCACTATCAACTGCCCTCTGCACGCCTCCACCAAGGGTCTCTTCAACAAGGAGCTCATCTCCCACATGAAGGATGGAGCCTGGCTCGTCAACACTGCTCGAGGAGCCATCTGCGTCACCGAGGACATTGTCGAGGCCCTAGAGTCCGGCAAAATCCGAGGATACGGAGGAGACGTCTGGTTCCCCCAGCCTGCCCCCAAGGACCACCCCTGGAGAACCATGCGAAACAATTACGGTGGTGGAAACGCCATGACTCCCCACATCTCCGGAACCTCCATTGATGCCCAGGGCCGATACGCTGAGGGTACCAAGAAGATCCTCGAGGTCTTTTTCTCGGGCAAGCAGGATTATCGACCCCAGGATATCATCTGTATCAACGGCCATTATGGTACCAAGGCCTACGGTGACGACAAAGAGCATAAGGAGCATCAGCTCAAGTAA", "Fold increase on induction (fold change expression of putative FDH genes upon induction with sodium formate)": 5.7},
      {"molecule": "Yali0F13937: putative Y. lipolytica FDH gene; promoter region SEQ ID NO: 6 (1 Kb) and 22 (1.5 Kb) (nucleic acid, listed as Yarrowia lipolytica, YALI0F13937g) DNA: ATGAAGGTCCTTCTTATTCTCTATGATGCCGGCTCTCACGCTAAGGATGAGCCCAAGCTCCTTGGATGCACCGAGAACGAGCTCGGTATCCGAGACTGGCTCGAGTCTCAGGGCCATACTCTCGTTACCACCTCTTCCAAGGATGGCGCCGACTCTGTGCTTGACAAGGAGATTGTTGACGCCGATGTAGTCATCACTACCCCCTTCCACCCTGGCTACATCAACAAGGAGCGAATCGACAAGGCCAAGAAGCTCAAGATCTGCATCACTGCCGGTGTGGGCTCGGACCACGTTGATCTCGATGCTGCCAACGCTCGAGATATCGCTGTTCTGGAAGTCACTGGTTCTAATGTCCAGTCCGTCGCTGAGCATGTTGTCATGACTATGCTCGTTCTGGTCCGAAACTTTGTCCCCGCCCACGAGCAAATCATCTCTGGCGGCTGGGATGTTGCTGCTGTCGCCAAGGACTCCTACGATCTCGAGGGTAAGGTCATCGGTACCGTTGGTGGCGGCCGAATCGGCCAGCGTGTCCTCAAGCGATGCAAGCCCTTCGACCCCATGGAAATGCTCTACTACGACTACCAGCCCATGCCTGCCGACGTCGAAAAGGAGATTGGTTGCCGACGAGTTGAGTCTCTGGAGGAGATGCTCTCTCTGTGTGATGTCGTGACCATCAATTGCCCTCTGCACGCCTCCACCAAGGGCCTCTTCAACAAGGAGCTCATCTCGCACATGAAGAATGGTGCTTGGCTCGTCAACACTGCTCGAGGAGCCATCTGCGTTACCGAGGACATTGTCGAGGCACTCGAGTCCGGCAAGATGCGAGGATACGGTGGTGATGTCTGGTTCCCCCAGCCTGCCCCCAAGGACCATCCCTGGAGAACCATGCGAAACAAGTACGGTGGTGGAAACGCCATGACTCCTCATATCTCTGGCACTTCCATCGATGCCCAGGGCCGATACGCCGAGGGAACAAAGAAGATCCTCGAGGTCTTCTTCTCTGGCAAGCAGGATTACCGACCCCAGGACATTATCTGCATCAACGGTCACTACGGTACCAAGGCTTACGGTGACGACAAGGAGCACAAGGAGCACCAGCTTAAGTAAACATTTTTATAGTAACATCTCATTTTGT", "Fold increase on induction (fold change expression of putative FDH genes upon induction with sodium formate)": 38.6}
    ]}
  ]
}
